B1: Elp1-3xFLAG (endogenous, in the Elp123 subcomplex) (natural protein, S. cerevisiae, UniProt Q06706 1-1349, looked up)
chain: MVEHDKSGSKRQELRSNMRNLITLNKGKFKPTASTAEGDEDDLSFTLLDSVFDTLSDSITCVLGSTDIGAIEVQQFMKDGSRNVLASFNIQTFDDKLLSFVHFADINQLVFVFEQGDIITATYDPVSLDPAETLIEIMGTIDNGIAAAQWSYDEETLAMVTKDRNVVVLSKLFEPISEYHLEVDDLKISKHVTVGWGKKETQFRGKGARAMEREALASLKASGLVGNQLRDPTMPYMVDTGDVTALDSHEITISWRGDCDYFAVSSVEEVPDEDDETKSIKRRAFRVFSREGQLDSASEPVTGMEHQLSWKPQGSLIASIQRKTDLGEEDSVDVIFFERNGLRHGEFDTRLPLDEKVESVCWNSNSEALAVVLANRIQLWTSKNYHWYLKQELYASDISYVKWHPEKDFTLMFSDAGFINIVDFAYKMAQGPTLEPFDNGTSLVVDGRTVNITPLALANVPPPMYYRDFETPGNVLDVACSFSNEIYAAINKDVLIFAAVPSIEEMKKGKHPSIVCEFPKSEFTSEVDSLRQVAFINDSIVGVLLDTDNLSRIALLDIQDITQPTLITIVEVYDKIVLLRSDFDYNHLVYETRDGTVCQLDAEGQLMEITKFPQLVRDFRVKRVHNTSAEDDDNWSAESSELVAFGITNNGKLFANQVLLASAVTSLEITDSFLLFTTAQHNLQFVHLNSTDFKPLPLVEEGVEDERVRAIERGSILVSVIPSKSSVVLQATRGNLETIYPRIMVLAEVRKNIMAKRYKEAFIVCRTHRINLDILHDYAPELFIENLEVFINQIGRVDYLNLFISCLSEDDVTKTKYKETLYSGISKSFGMEPAPLTEMQIYMKKKMFDPKTSKVNKICDAVLNVLLSNPEYKKKYLQTIITAYASQNPQNLSAALKLISELENSEEKDSCVTYLCFLQDVNVVYKSALSLYDVSLALLVAQKSQMDPREYLPFLQELQDNEPLRRKFLIDDYLGNYEKALEHLSEIDKDGNVSEEVIDYVESHDLYKHGLALYRYDSEKQNVIYNIYAKHLSSNQMYTDAAVAYEMLGKLKEAMGAYQSAKRWREAMSIAVQKFPEEVESVAEELISSLTFEHRYVDAADIQLEYLDNVKEAVALYCKAYRYDIASLVAIKAKKDELLEEVVDPGLGEGFGIIAELLADCKGQINSQLRRLRELRAKKEENPYAFYGQETEQADDVSVAPSETSTQESFFTRYTGKTGGTAKTGASRRTAKNKRREERKRARGKKGTIYEEEYLVQSVGRLIERLNQTKPDAVRVVEGLCRRNMREQAHQIQKNFVEVLDLLKANVKEIYSISEKDRERVNENGEVYYIPEIPVPEIHDFPKSHIVDF
B2: Elp2 (endogenous, in the Elp123 subcomplex) (natural protein, UniProt P42935 1-788, looked up)
chain: MVECITPEAIFIGANKQTQVSDIHKVKKIVAFGAGKTIALWDPIEPNNKGVYATLKGHEAEVTCVRFVPDSDFMVSASEDHHVKIWKFTDYSHLQCIQTIQHYSKTIVALSALPSLISVGCADGTISIWRQNIQNDEFGLAHEFTIKKGFFYPLCLSLSKVEEKKYLLAIGGTNVNVFIASFILSDSGIEKCRVVAELEGHEDWVKSLAFRHQETPGDYLLCSGSQDRYIRLWRIRINDLIDDSEEDSKKLTLLSNKQYKFQIDDELRVGINFEALIMGHDDWISSLQWHESRLQLLAATADTSLMVWEPDETSGIWVCSLRLGEMSSKGASTATGSSGGFWSCLWFTHERMDFFLTNGKTGSWRMWATKDNIICDQRLGISGATKDVTDIAWSPSGEYLLATSLDQTTRLFAPWIYDASGRKREIATWHEFSRPQIHGYDMICVETVTDTRFVSGGDEKILRSFDLPKGVAGMLQKFVGIQFEEKSEMPDSATVPVLGLSNKAGEDDANEDDEEEEGGNKETPDITDPLSLLECPPMEDQLQRHLLWPEVEKLYGHGFEITCLDISPDQKLIASACRSNNVQNAVIRIFSTENWLEIKPALPFHSLTITRLKFSKDGKFLLSVCRDRKWALWERNMEDNTFELRFKNEKPHTRIIWDADWAPLEFGNVFVTASRDKTVKVWRHQKEPADDYVLEASIKHTKAVTAISIHDSMIREKILISVGLENGEIYLYSYTLGKFELITQLNEDITPADKITRLRWSHLKRNGKLFLGVGSSDLSTRIYSLAYE

Columns and labels:
Experiment in all cases: cryo-EM structure
cryo-EM structure = target: the molecule itself
[1] = target: B2
[2] = target: B1

| binding result [1] | binding result [2] | Binder | stoichiometry N (cryo-EM structure) |
| --- | --- | --- | --- |
| – | – | B1 | 2 |
| binds | binds | Elp3 (endogenous, in the Elp123 subcomplex) (enzyme, UniProt Q02908 1-557, looked up) MARHGKGPKTNKKKLAPEKERFIQCCADITLELTDSLTSGTTREINLNGLITKYSKKYKLKQQPRLTDIINSIPDQYKKYLLPKLKAKPVRTASGIAVVAVMCKPHRCPHIAYTGNICVYCPGGPDSDFEYSTQSYTGYEPTSMRAIRARYDPYEQARGRVEQLKQLGHSIDKVEYVLMGGTFMSLPKEYREDFIVKLHNALSGFNGNDIDEAILYSQQSLTKCVGITIETRPDYCTQTHLDDMLKYGCTRLEIGVQSLYEDVARDTNRGHTVRSVCETFAVSKDAGYKVVSHMMPDLPNVGMERDIEQFKEYFENPDFRTDGLKIYPTLVIRGTGLYELWKTGRYKSYSANALVDLVARILALVPPWTRIYRVQRDIPMPLVTSGVDNGNLRELALARMKDLGTTCRDVRTREVGIQEVHHKVQPDQVELIRRDYYANGGWETFLSYEDPKKDILIGLLRLRKASKKYTYRKEFTSQRTSIVRELHVYGSVVPLHSRDPRKFQHQGFGTLLMEEAERIAKEEHGSEKISVISGVGVRNYYGKLGYELDGPYMSKRI | – |
| – | binds | B2 | – |
